Paper PMC7550751, “Application of Force to a Syndecan-4 Containing Complex With Thy-1–αVβ3 Integrin Accelerates Neurite Retraction” (Frontiers in Molecular Biosciences, 2020)

What was measured:
[1] = target: T1, Recombinant αVβ3-Fc integrin (UniProt P06756 31-992; P05106 27-718); test: zero force, optical tweezers, with TRAIL-R2-Fc control on the bead
T1 chain 1: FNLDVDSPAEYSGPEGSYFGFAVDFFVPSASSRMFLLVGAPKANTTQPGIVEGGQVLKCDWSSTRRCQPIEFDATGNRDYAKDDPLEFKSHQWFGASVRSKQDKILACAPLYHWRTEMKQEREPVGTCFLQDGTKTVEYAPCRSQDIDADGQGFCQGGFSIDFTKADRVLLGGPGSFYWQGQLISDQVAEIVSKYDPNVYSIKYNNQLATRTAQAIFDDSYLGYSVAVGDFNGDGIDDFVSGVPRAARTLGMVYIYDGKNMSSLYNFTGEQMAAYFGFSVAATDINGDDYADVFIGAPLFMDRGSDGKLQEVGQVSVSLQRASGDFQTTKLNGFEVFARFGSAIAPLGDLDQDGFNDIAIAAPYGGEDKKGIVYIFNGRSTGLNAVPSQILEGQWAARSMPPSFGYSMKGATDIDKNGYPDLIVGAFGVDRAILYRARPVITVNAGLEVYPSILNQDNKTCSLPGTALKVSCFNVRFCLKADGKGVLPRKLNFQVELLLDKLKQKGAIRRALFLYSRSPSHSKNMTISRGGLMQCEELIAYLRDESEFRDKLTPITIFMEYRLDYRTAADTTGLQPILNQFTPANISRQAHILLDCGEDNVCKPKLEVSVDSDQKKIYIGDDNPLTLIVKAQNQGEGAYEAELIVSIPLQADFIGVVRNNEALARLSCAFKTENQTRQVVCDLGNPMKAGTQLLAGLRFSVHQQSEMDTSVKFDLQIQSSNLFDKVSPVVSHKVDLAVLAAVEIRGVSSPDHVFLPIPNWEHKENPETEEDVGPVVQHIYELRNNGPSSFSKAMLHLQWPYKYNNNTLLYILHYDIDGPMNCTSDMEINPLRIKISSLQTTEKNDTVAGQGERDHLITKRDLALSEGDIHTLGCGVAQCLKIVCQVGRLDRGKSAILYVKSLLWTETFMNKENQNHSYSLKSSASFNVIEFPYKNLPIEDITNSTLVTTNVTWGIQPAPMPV
T1 chain 2: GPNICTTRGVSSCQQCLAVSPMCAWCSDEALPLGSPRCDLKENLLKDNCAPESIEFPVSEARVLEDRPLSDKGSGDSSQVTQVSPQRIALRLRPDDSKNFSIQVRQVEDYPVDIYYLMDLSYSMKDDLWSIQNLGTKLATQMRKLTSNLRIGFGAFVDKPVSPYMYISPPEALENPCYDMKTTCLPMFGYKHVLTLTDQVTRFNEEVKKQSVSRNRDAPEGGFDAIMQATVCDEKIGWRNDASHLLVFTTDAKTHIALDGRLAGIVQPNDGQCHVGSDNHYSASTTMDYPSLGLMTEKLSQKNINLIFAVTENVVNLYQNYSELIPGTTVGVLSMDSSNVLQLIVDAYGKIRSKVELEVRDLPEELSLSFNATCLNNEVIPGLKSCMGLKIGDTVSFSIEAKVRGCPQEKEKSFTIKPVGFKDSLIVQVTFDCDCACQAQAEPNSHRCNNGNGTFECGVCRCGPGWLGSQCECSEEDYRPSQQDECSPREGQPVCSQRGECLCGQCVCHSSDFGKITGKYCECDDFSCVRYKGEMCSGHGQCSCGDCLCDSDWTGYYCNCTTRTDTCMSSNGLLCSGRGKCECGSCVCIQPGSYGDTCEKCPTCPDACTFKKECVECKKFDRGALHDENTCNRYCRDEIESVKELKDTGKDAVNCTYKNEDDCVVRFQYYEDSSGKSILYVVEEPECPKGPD

[2] = target: T2, Commercially purified human Syndecan (ectodomain)-4-Fc (human, UniProt P31431 19-145); test: as above
T2 chain: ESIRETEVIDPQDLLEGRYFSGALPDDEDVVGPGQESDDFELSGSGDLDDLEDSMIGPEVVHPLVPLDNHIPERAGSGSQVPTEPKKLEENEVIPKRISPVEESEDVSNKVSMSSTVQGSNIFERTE

[3] = target: T3, αVβ3-Fc + Syndecan-4-Fc (both on one bead) ( | human, UniProt P06756 31-992; P05106 27-718; P31431 19-145); test: zero force, optical tweezers, both αvβ3-Fc and Syndecan-4-Fc on the bead
T3 chain 1: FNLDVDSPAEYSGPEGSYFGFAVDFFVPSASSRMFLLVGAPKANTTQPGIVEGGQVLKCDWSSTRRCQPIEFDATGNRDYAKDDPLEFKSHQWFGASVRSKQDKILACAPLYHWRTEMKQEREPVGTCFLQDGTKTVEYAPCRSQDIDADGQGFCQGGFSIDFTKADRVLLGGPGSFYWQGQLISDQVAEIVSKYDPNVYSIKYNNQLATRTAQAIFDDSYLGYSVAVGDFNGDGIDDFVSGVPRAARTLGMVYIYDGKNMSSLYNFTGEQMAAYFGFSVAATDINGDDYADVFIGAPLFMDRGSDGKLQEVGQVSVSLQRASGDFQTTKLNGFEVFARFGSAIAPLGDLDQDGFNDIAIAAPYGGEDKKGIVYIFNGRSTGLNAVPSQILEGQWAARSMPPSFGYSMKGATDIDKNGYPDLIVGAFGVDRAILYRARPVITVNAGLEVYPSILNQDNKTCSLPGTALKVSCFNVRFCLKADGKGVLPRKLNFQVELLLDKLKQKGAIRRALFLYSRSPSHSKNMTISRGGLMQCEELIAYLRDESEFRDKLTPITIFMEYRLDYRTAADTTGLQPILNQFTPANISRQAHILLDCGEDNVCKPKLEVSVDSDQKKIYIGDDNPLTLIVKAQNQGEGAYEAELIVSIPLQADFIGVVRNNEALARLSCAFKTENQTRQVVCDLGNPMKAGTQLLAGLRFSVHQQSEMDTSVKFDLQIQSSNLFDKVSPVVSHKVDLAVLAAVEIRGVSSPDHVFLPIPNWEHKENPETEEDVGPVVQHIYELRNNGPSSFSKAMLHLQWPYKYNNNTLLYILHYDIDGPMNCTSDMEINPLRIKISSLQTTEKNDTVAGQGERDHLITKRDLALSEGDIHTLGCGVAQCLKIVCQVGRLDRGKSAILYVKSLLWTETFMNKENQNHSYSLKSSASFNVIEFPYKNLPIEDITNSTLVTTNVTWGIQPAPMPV
T3 chain 2: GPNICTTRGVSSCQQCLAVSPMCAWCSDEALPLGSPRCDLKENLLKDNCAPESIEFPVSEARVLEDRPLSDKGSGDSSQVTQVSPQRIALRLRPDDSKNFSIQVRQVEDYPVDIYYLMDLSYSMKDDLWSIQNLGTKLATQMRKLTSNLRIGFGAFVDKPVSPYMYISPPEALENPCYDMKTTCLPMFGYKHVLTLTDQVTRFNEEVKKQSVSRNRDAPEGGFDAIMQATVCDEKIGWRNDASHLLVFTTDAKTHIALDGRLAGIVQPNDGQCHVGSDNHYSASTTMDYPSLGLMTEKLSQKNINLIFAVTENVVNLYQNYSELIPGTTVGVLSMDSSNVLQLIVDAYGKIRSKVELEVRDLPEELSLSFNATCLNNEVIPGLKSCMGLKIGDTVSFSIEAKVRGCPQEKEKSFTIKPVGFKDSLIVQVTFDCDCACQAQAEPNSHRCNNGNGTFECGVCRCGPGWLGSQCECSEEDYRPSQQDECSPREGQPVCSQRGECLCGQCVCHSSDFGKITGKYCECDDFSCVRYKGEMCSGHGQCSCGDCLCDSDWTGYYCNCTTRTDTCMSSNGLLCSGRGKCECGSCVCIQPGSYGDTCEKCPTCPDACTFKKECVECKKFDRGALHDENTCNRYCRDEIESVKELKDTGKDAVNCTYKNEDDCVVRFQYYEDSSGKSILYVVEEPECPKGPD
T3 chain 3: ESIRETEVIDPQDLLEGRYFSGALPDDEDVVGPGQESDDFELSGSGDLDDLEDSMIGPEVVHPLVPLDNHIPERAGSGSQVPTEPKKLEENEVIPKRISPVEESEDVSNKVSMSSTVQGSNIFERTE

[4] = target: T1, Recombinant αVβ3-Fc integrin; test: zero force, optical tweezers
[5] = target: T2, Commercially purified human Syndecan …; test: zero force, optical tweezers

B1: Thy-1-Fc wild type (Fc fusion)
chain: QKVTSLTACLVNQNLRLDCRHENNTKDNSIQHEFSLTREKRKHVLSGTLGIPEHTYRSRVTLSNQPYIKVLTLANFTTKDEGDYFCELQVSGANPMSSNKSISVYRDKLVKC
koff [1]: 0.15 s⁻¹ | koff [2]: 0.28 s⁻¹ | koff [3]: 0.08 s⁻¹ | koff [4]: 0.14 s⁻¹ | koff [5]: 0.32 s⁻¹
